The target of experiment [1] is 6xHis-tagged cell-wall binding domain of endolysin CD16/50L, wild type (Clostridioides difficile phage ϕHN50 (identical in ϕHN16-1)). The experiment in a line: SEC; Superdex 75 10/300 GL, 50 mM Tris-HCl (pH 8.0), 500 mM NaCl, 0.5 mL/min; approximately 2.5 mg/mL of each purified 6xHis-CBD variant injected separately; size from calibration with standard proteins. A general note: Size exclusion chromatography separates by hydrodynamic size, large species first.

A further experiment concerns the target PG-PS complex. The experiment in a line: co-precipitation (pull-down) with PG-PS complex, SDS-PAGE band quantification. To be noted: parent: est. 1.0; read off a plot.
Experiment [2] deals with CD16/50L CBD wild type fused to SmBit and to LgBit (CBD-SmBit/LgBit, plasmid pWP004) (Clostridioides difficile phage ϕHN50 (identical in ϕHN16-1)). The experiment in a line: split reporter (BiFC, NanoBiT); BitLuc^opt split luciferase in live C. difficile R20291; CBD-SmBit and CBD-LgBit co-expressed, induced with 4% (wt/vol) xylose for 2 h; Nano-Glo (furimazine) substrate, luminescence read.

For experiment [3], the target named is CD16/50L CBD C234A fused to SmBit and to LgBit. The experiment in a line: split complementary luciferase assay (SmBit/LgBit) in C. difficile cells. To be noted: 4% (wt/vol) xylose for 2 h; furimazine substrate incubated for 5 min; parent: est. 6.0; read off a plot.
The target in experiment [4] is CD16/50L CBD E239A fused to SmBit and to LgBit. The description is as above. Conditions: 4% (wt/vol) xylose for 2 h; furimazine substrate incubated for 5 min; parent: est. 6.0; read off a plot.
The target in experiment [5] is CD16/50L CBD F248A fused to SmBit and to LgBit. Described as above. Conditions: 4% (wt/vol) xylose for 2 h; furimazine substrate incubated for 5 min; parent: est. 6.0; read off a plot.
Experiment [6] concerns the target CD16/50L CBD M260A fused to SmBit and to LgBit. Described as above. Conditions: 4% (wt/vol) xylose for 2 h; furimazine substrate incubated for 5 min; parent: est. 6.0; read off a plot.
The target of experiment [7] is CD16/50L CBD Q250A fused to SmBit and to LgBit. The description is as above. Conditions: 4% (wt/vol) xylose for 2 h; furimazine substrate incubated for 5 min; parent: est. 6.0; read off a plot.
Experiment [8] has as its target CD16/50L CBD W257A fused to SmBit and to LgBit. The description is as above. To be noted: 4% (wt/vol) xylose for 2 h; furimazine substrate incubated for 5 min; parent: est. 6.0; read off a plot.
The target of experiment [9] is CD16/50L CBD Y202A fused to SmBit and to LgBit. Described as above. To be noted: 4% (wt/vol) xylose for 2 h; furimazine substrate incubated for 5 min; parent: est. 6.0; read off a plot.
In experiment [10] the target is CD16/50L CBD (Y202A, W257A) fused to SmBit and to LgBit. The description is as above. Conditions: 4% (wt/vol) xylose for 2 h; furimazine substrate incubated for 5 min; parent: est. 6.0; read off a plot.

Experimental findings from PMC9045149 are described below.

A value given as a limit tells only on which side of the number the result lay.

“6xHis-tagged cell-wall binding domain of endolysin CD16/50L, wild type (domain or fragment)” had a stoichiometry N in [1] of 2.

Take “6xHis-tagged cell-wall binding domain of endolysin CD16/50L, wild type W257A”: in the experiment with PG-PS complex, the ratio to parent came out at 0.35.

Consider “6xHis-tagged cell-wall binding domain of endolysin CD16/50L, wild type Y202A; W257A”, for which the ratio to parent in the experiment with PG-PS complex came out at 0.47.

In [2], “CD16/50L CBD wild type fused to SmBit and to LgBit (CBD-SmBit/LgBit, plasmid pWP004) (domain or fragment)” returned a fold increase of the luciferase signal over the single-fragment controls below 300 fold.

Turning to “CD16/50L CBD wild type fused to SmBit and to LgBit (CBD-SmBit/LgBit, plasmid pWP004) C234A”, the response in [3] was 6 log RLU.

Regarding “CD16/50L CBD wild type fused to SmBit and to LgBit (CBD-SmBit/LgBit, plasmid pWP004) E239A”, in experiment [4], the response amounted to 6.1 log RLU.

With “CD16/50L CBD wild type fused to SmBit and to LgBit (CBD-SmBit/LgBit, plasmid pWP004) F248A”, the response in [5] turned out to be 6 log RLU.

For “CD16/50L CBD wild type fused to SmBit and to LgBit (CBD-SmBit/LgBit, plasmid pWP004) M260A”, the response in experiment [6] was determined as 6 log RLU.

For “CD16/50L CBD wild type fused to SmBit and to LgBit (CBD-SmBit/LgBit, plasmid pWP004) Q250A”, the response in experiment [7] came out at 6 log RLU.

Turning to “CD16/50L CBD wild type fused to SmBit and to LgBit (CBD-SmBit/LgBit, plasmid pWP004) W257A”, in [8], the response came to 4.9 log RLU.

For “CD16/50L CBD wild type fused to SmBit and to LgBit (CBD-SmBit/LgBit, plasmid pWP004) Y202A”, the response in [9] was determined as 5.9 log RLU.

In the case of “CD16/50L CBD wild type fused to SmBit and to LgBit (CBD-SmBit/LgBit, plasmid pWP004) Y202A; W257A”, the response in [10] was 3.5 log RLU.

By stoichiometry N is commonly meant the number of molecules, sites or subunits per partner or assembly.
